Here are results for 1 molecule from article PMC7338525, “Insights into the structure and function of Est3 from the Hansenula polymorpha telomerase”.

The target in the data set is T1, HpEst3 (Hansenula polymorpha, UniProt W1QJK4 1-175).
T1 sequence: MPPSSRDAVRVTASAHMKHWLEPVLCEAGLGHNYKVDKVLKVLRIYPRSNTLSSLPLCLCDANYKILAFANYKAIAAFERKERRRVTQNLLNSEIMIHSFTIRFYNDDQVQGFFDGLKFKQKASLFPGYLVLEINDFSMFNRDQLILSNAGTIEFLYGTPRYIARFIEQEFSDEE
Description: NMR titration (15N-HpEst3); Est3:DNA up to 1:5; non-specific binding, signal broadening without shift changes; NMR: 100 mM KCl, 20 mM potassium phosphate pH 6.5, 0.02% NaN3, 3 mM DTT, 25 C; EMSA: 20 mM potassium phosphate pH 6.5, 100 mM KCl, 3 mM DTT, 8% native PAGE. As to conditions: protein: recombinant. (In general: Mobility shift assays separate free from complexed probe on a gel.)

B1: ssDNA G4 (four telomeric repeats) (ssDNA)
DNA: GGGTGGCGGGGTGGCGGGGTGGCGGGGTGGCG
As for B1, the binding result is on record as “binds”.
